Results published in the supplement of paper PMC9170038.

System: MS2 coat protein
Test: apparent KD of MS2 coat protein; higher = weaker reporter binding
Details: Eterna round: R107
In short: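 Apparent KD is reported per design as the median of normalised binding-curve fits across its clusters. The RNA switches were made by on-chip transcription from Illumina sequencing clusters. SNAP-549-labelled MS2 coat protein was then added in twofold steps (0.7 or 1.5 nM to 3 µM; 0.8–1.5 h to 10–20 min per step) in 100 mM Tris-HCl pH 7.5, 80 mM KCl, 4 mM MgCl2, without or with constant ligand.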

[1] = input ligand: theophylline 20 uM
[2] = input ligand: theophylline 2 mM
[3] = input ligand: tryptophan 2.4 mM

Sequence | apparent KD of MS2 coat protein (input ligand: arginine 13.2 mM) [µM] | apparent KD of MS2 coat protein [1] [µM] | apparent KD of MS2 coat protein [2] [µM] | apparent KD of MS2 coat protein (input ligand: none) [µM] | apparent KD of MS2 coat protein [3] [µM]
UGUACCAUGUCGGCCGCCACUCAUGAUAAACAUGAGGAUCACCCAUGUGGCGUCAAAGACGCUAUGAGGACCGGGACAUGGUACU [TryBS Zipper 3 #StaticStem #Zipper] | 0.0153 | 0.0199 | 0.0157 |  | 
UGUAUGGACUGAAGGAGCGGGUAAUAAAUCUGAGGAUCACCCAGGUAAUAGGCGAAAGCCACCCAGGUAGGUCGCAGUCCAUACU | 0.0177 | 0.0251 | 0.0193 | 0.019 | 0.0194
UGUAUGUGAAGUGAUACCAGUCCAUAAACUGGAACAUGAGGAUCACCCAUGUAAUGGGUGGACCCUUGGCAGCACUUCUCAUACU [First try] | 0.048 | 0.468 |  |  | 0.19
UGUAUGUGAUCUGAUACCAGAGUUGAUAACCUGAGGAUCACCCUGGUAAAGGCGAAAGCCCUCCCUUGGCAGCAGAUCGCAUACU | 0.121 | 0.207 | 0.0346 | 0.216 | 0.239
UGUAUGUGAUCUGAUACCAGCGUUGAUAACCUGAGGAUCACCCUGGUAAGGCGAAAGCCGCGCCCUUGGCAGCAGAUCGCAUACU | 0.169 | 0.0839 | 0.0233 | 0.237 | 0.26
UGUAUGUGAUCUGAUACCAGCUAAUAAAGCUUGAGGAUCACCCAAGUGGAGCGGAAACGCAGCCCUUGGCAGCAGAUCGCAUACU [Denovo 8 #StaticStem #AlternativeMS2] | 0.189 | 0.103 | 0.00993 | 0.169 | 0.224
UGUAUGUGAUCUGAUACCAGCUAGCGGAAACGCAGCUUGAGGAUCACCCAAGUGGAAAUAAGCCCUUGGCAGCAGAUCGCAUACU [Denovo 6 #StaticStem #AlternativeMS2] | 0.0997 | 0.139 | 0.0119 | 0.246 | 0.309
UGUAUGUGAUCUGAUACCAGCUUAAUAGCUUGAGGAUCACCCAAGUGGAGCGGAAACGCUAGCCCUUGGCAGCAGAUCGCAUACU [Denovo 10 #StaticStem #AlternativeMS2] | 0.104 | 0.104 | 0.0119 | 0.198 | 0.198
UGUAUGUGAUCUGAUACCAGUCCAACUGGUAAAACAAGAGGAUCACCCUUGUAAAAUUGGGACCCUUGGCAGCAGAUCGCAUACU | 0.251 | 0.409 | 0.0298 | 0.472 | 0.733
UGUAUGUGAUCUGAUACCAGUCCAACUGGUAAAACCUGAGGAUCACCCAGGUAAAAUUGGGACCCUUGGCAGCAGAUCGCAUACU | 0.134 | 0.13 | 0.0161 | 0.183 | 0.177
UGUAUGUGAUUUGAUACCAGACCAGCUGGUGGUACCUGAGGAUCACCCAGGUAGGUUUGGGUCCCUUGGCAGCAAAUCGCAUACU [SS Theo B #24 Ms6] | 0.022 | 0.0238 | 0.0114 | 0.0206 | 0.0212
UGUAUGUGAUUUGAUACCAGACCAGCUGGUGGUACCUGAGGAUCACCCGGGUAGGUUUGGGUCCCUUGGCAGCAAAUCGCAUACU [SS Theo B #24 Ms8] | 0.0486 | 0.0521 | 0.0315 | 0.0486 | 0.0486
UGUAUGUGAUUUGAUACCAGACCAGCUGGUGGUACUUGAGGAUCACCCAAGUAGGUUUGGGUCCCUUGGCAGCAAAUCGCAUACU [SS Theo B #24 Ms10] | 0.165 | 0.142 | 0.0308 | 0.163 | 0.198
UGUAUGUGAUUUGAUACCAGACCAGCUGGUGGUAUCUGAGGAUCACCCAGGUAGGUUUGGGUCCCUUGGCAGCAAAUCGCAUACU [SS Theo B #24 Ms15] | 0.145 | 0.892 | 0.335 | 0.186 | 1.72
UGUAUGUGAUUUGAUACCAGACCAGCUGGUGUUCCAUGAGGAUCACCCAUGGAGGUUUGGGUCCCUUGGCAGCAAAUCGCAUACU [SS Theo B #24 Ms16] | 0.0332 | 0.034 | 0.0232 | 0.0252 | 0.0303
UGUAUGUGAUUUGAUACCAGUUCUGCUGGUAAAACAUGAGGAUCACCCAUGUUACUUUGGGACCCUUGGCAGCAAAUCGCAUACU [SSTheo B #27] | 0.09 | 0.119 |  |  | 0.202
UGUCAGCGAAAGUUGACAUGUCUUACCGGUCGAGGACCGGUACGGCCGCCACUCGAUCUCUCGCACAUGAGGAUCACCCAUGUUG [SS Tryp A #22] | 0.0193 | 0.029 | 0.0265 |  | 
UGUCGGCCGCCAGGAAAUGGUGGCCGACAUCGAGGACCGGUACGGCCGCCACUCGGUCGUACAUGAGGAUCACCCAUGUCGGUGA [SameState-Tryptophan_A Attempt #10 (HarryS)] | 0.0729 | 0.508 | 0.942 | 0.496 | 1.2
UGUGCAGGAUGCGUAAAGGGUCUUGCGCAUCGAGGACCGGUACGGCCGCCACUCGGCUGUACAUGAGGAUCACCCAUGUCAGGGU [#1 Same State - Tryptophan A Attempt #19 (HarryS)] | 0.0871 | 0.445 | 1.83 | 0.477 | 0.533
UGUGUCGUCUGAAGGAGCGGCCCUUGAUCCUCGUGAGACAUGAGGAUCACCCAUGUCUCGGGCCAGGUAGGUCGCAGGCGGCACA [#25 Exclusion - Arginine B] | 0.0115 | 0.0172 | 0.0128 | 0.0119 | 0.0126

Sequence | apparent KD of MS2 coat protein (input ligand: arginine 13.2 mM) [µM] | apparent KD of MS2 coat protein [1] [µM] | apparent KD of MS2 coat protein [2] [µM] | apparent KD of MS2 coat protein (input ligand: none) [µM] | apparent KD of MS2 coat protein [3] [µM]
UGUUUUAAAAGUGAUACCAGACAAACAUGAGGAUCACCCAUGUAACAUGAGAGAUAAUAAGUCCCUUGGCAGCACAUAAUUAGUA [JR_Nu_SSTheophyB_Sub028] | 0.027 | 0.0331 |  |  | 0.0315
UGUUUUGUGAUGGAUACCAGCAGAGAAAACGUUUAUCCUAACAUGAGGAUCACCCAUGUAUGCCCUUGGCAGCUGUUGUGGGAUA [8.R] | 0.0272 | 0.0439 |  |  | 0.0279
UUAAUCAAAUUAGAAAACUAAUUUGCAGAAGGAGCGUGAUAAAACACAGGUAGGUCGCUGAAGGGAACAUGAGGAUCACCCAUGU [AstrosSSArgA#11] | 0.0267 | 0.0357 | 0.0295 | 0.026 | 0.0257
UUAAUCAUAUAAGAAAACUUAUAUGCAGAAGGAGCGUGAUAAAACACAGGUAGGUCGCUGAAGGGAACAUGAGGAUCACCCAUGU [AstrosSSArgA#7] | 0.028 | 0.0362 | 0.0324 | 0.0234 | 0.0288
UUAAUCAUGUUAGAAAACUAAUAUGCAGAAGGAGCGUGAUAAAACACAGGUAGGUCGCUGAAGGGAACAUGAGGAUCACCCAUGU [AstrosSSArgA#9] | 0.0428 | 0.0436 | 0.0373 | 0.037 | 0.0348
UUAAUUAUAUAUUAUAUAAUAUAUACAGAAGGAGCGUGAUAAAACACAGGUAGGUCGCUGAAGGGAACAUGAGGAUCACCCAUGU [AstrosSSArgA#1] | 0.0269 | 0.0385 | 0.0486 | 0.0256 | 0.03
UUACAUGAGGAUCACCCAUGUCAUAACGAUACCAGAUAGUUAAUGAUCCCUUGGCAGCGUAAUACCUAGACAUUUAAGUCAUAGG [#25 SameState-TheophyllineA] | 0.0353 | 0.0632 |  |  | 0.0509
UUACGAGGCUAUCCACUUUGAUUUUGUGAUACCAGAAUAAUUUUAUUCCCUUGGCAGCAUGACAUGAGGAUCACCCAUGUGUCUU [SSTheo A #4] | 0.0343 | 0.0474 |  |  | 0.0425
UUAGAUAUGACAGAUACCAGCGUGUUAUAAAACAUGAGGAUCACCCAUGUAGUGAUCGAGCGCCCUUGGCAGCUGGUGUGUUUGG [7.R] | 0.0697 | 0.175 |  |  | 0.148
UUAGAUAUGACGGAUACCAGCGUGUUGUAGAACAUGAGGAUCACCCAUGUAGUGAUCAUGCGCCCUUGGCAGCUGGUAUGUUUGG [7.U] | 0.178 | 0.386 |  |  | 0.566
UUAUUUAACGGAAGGAGCGCGGAUAAUAAAGUGGGUAAACAUGAGGAUCACCCAUGUAAACCGCAGGUAGGUCGCCGAUAUUUAU [AstrosEXyARgB#6] | 0.0439 | 0.0776 | 0.0729 | 0.0565 | 0.0426
UUCAGCUAGUCGGCCGCCACUACAUGAGGAUCACCCAUGUCGGUCCUCACUGCUUCGGCAGUGUGUAGGACCGGGACUAGCUGAG | 0.062 | 0.0936 | 0.0913 |  | 
UUCAGCUAGUCGGCCGCCACUACAUGAGGAUCACCCAUGUUCCUAAAACACUGCUUCGGCAGUGGUAGGACCGGGACUAGCUGAG | 0.0411 | 0.0485 | 0.042 | 0.0317 | 0.256
UUCAGCUAGUCGGCCGCCACUACUUGAGGAUCACCCAAGUAGGUCCACACUGCUUCGGCAGUGAGUAGGACCGGGACUAGCUGAG | 0.0137 | 0.0135 | 0.0115 | 0.0147 | 0.0353
UUCAGCUAGUCGGCCGCCACUACUUGAGGAUCACCCAGGUAAUCCUAACACUGCUUCGGCAGUGGUAGGACCGGGACUAGCUGAG | 0.024 | 0.0216 | 0.0245 | 0.019 | 0.103
UUCAGCUAGUCGGCCGCCACUGCAUGAGGAUCACCCAUGUAGGUCCACACUGCUUCGGCAGUGAGUAGGACCGGGACUAGCUGAG | 0.0114 | 0.0129 | 0.0108 | 0.00941 | 0.0137
UUCAGCUAGUCGGCCGCCACUGCUUGAGGAUCACCCAAGUAGGUCCACACUGCUUCGGCAGUGAGUAGGACCGGGACUAGCUGAG | 0.0109 | 0.0144 | 0.0101 | 0.0101 | 0.0258
UUCUACGACGAUCUGGGAAAACCAGAUCGACGAGGACCGGUACGGCCGCCACUCGUGUUUCUUUAACAUGAGGAUCACCCAUGUA [#12 Tryptophan A Same State] | 0.0236 | 0.028 | 0.0278 |  | 
UUCUUUAAGUCGGCCGCCACUGAAACAUGAGGAUCACCCAUGUAUAUUUGGGUAUAGGUGGAUUACAGGACCGGGACUAUAGUAA [JR_ExcTryptoB_Sub022] | 0.0312 | 0.0723 | 0.104 | 0.0661 | 0.0796
